The supplement of paper PMC7125110
± gives the standard error. For some assays here: This sample holds only a part of the variants without activity.

B1: glmS ribozyme (parent)
chain: AUAAAAGCGCCAGAACUACAGAAAUGUAGUUGACGAGGAGGAGGUUUAUCGAAUUUUCGGCGGAUGCCUCCAAA

Legend:
Conditions in all cases: with glucosamine-6-phosphate
[1] = variants of: B1; assay: kcat; higher = faster cleavage; RNA array
Outline: (§1)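 In situ transcription by E. coli RNA polymerase produced barcoded ribozyme variants on sequenced MiSeq chips, and a hybridised Cy3 probe tracked them at 37 °C. Glucosamine-6-phosphate was flowed in at 40 μM to 10 mM in HEPES/KCl/Mg(OAc)2 buffer. kcat and KM were taken from weighted Michaelis–Menten fits of kobs values from exponential decay fits.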

[2] = variants of: B1; assay: KM; higher = weaker cofactor use; RNA array
Outline: as §1

[3] = variants of: B1; assay: self-cleavage kobs at 2500 uM GlcN6P; higher = faster cleavage; RNA array
Outline: as §1

[4] = variants of: B1; assay: self-cleavage kobs at 10000 uM GlcN6P; higher = faster cleavage; RNA array
Outline: as §1

[5] = variants of: B1; assay: self-cleavage kobs at 160 uM GlcN6P; higher = faster cleavage; RNA array
Outline: as §1

[6] = variants of: B1; assay: self-cleavage kobs at 640 uM GlcN6P; higher = faster cleavage; RNA array
Outline: as §1

[7] = variants of: B1; assay: self-cleavage kobs at 40 uM GlcN6P; higher = faster cleavage; RNA array
Outline: as §1

| Variant | kcat [1] | KM [2] | self-cleavage kobs at 2500 uM GlcN6P [3] | self-cleavage kobs at 10000 uM GlcN6P [4] | self-cleavage kobs at 160 uM GlcN6P [5] | self-cleavage kobs at 640 uM GlcN6P [6] | self-cleavage kobs at 40 uM GlcN6P [7] |
| --- | --- | --- | --- | --- | --- | --- | --- |
| G13C C58A C61U C70G | 1.31e-05 ± 2.2e-06 s⁻¹ | – | – | – | – | – | – |
| G29U U57C | 6.81e-05 ± 7.7e-06 s⁻¹ | 3360 ± 1100 µM | 2.73e-05 ± 7.7e-06 s⁻¹ | 5.13e-05 ± 6.5e-06 s⁻¹ | – | – | – |
| G37A A39C | 0.00108 ± 0.0001 s⁻¹ | 4350 ± 560 µM | 0.000399 ± 6e-05 s⁻¹ | 0.000742 ± 0.00013 s⁻¹ | 3.21e-05 ± 1.1e-05 s⁻¹ | 0.000144 ± 1.8e-05 s⁻¹ | – |
| A42G U54C | 0.0476 ± 0.013 s⁻¹ | 3020 ± 1100 µM | – | 0.0394 ± 0.008 s⁻¹ | 0.00208 ± 0.001 s⁻¹ | 0.0066 ± 0.0019 s⁻¹ | 0.000795 ± 0.00016 s⁻¹ |
| U31A U47C | 0.0025 ± 0.0005 s⁻¹ | 3290 ± 980 µM | 0.00117 ± 0.00017 s⁻¹ | 0.00174 ± 0.00034 s⁻¹ | 9.34e-05 ± 2.4e-05 s⁻¹ | 0.000511 ± 0.00012 s⁻¹ | 3.34e-05 ± 1.3e-05 s⁻¹ |
| C58U C68U | 6.04e-05 ± 7.7e-06 s⁻¹ | 2460 ± 1000 µM | 2.71e-05 ± 8.5e-06 s⁻¹ | 4.92e-05 ± 7.3e-06 s⁻¹ | – | – | – |
| G37A U45G C70G | 1.07e-05 ± 4e-06 s⁻¹ | – | – | – | – | – | – |
| A39U U54G | 0.0173 ± 0.0074 s⁻¹ | – | – | 0.018 ± 0.0044 s⁻¹ | 0.00169 ± 0.00043 s⁻¹ | 0.00453 ± 0.001 s⁻¹ | 0.000704 ± 0.00014 s⁻¹ |
| U47C A53C | 0.00196 ± 0.00041 s⁻¹ | 1380 ± 440 µM | 0.00163 ± 0.00044 s⁻¹ | 0.00173 ± 0.00032 s⁻¹ | – | 0.000497 ± 0.00012 s⁻¹ | 6.18e-05 ± 1.1e-05 s⁻¹ |
| C50U G66U C70G | 4.59e-05 ± 1.9e-05 s⁻¹ | – | – | – | – | – | – |
| C16G C68U | 0.000168 ± 6e-06 s⁻¹ | 778 ± 79 µM | 0.000125 ± 1.6e-05 s⁻¹ | 0.00016 ± 2.3e-05 s⁻¹ | 3.33e-05 ± 1.5e-05 s⁻¹ | 7.49e-05 ± 1.2e-05 s⁻¹ | – |
| C16G C68A | 2.15e-05 ± 6.1e-06 s⁻¹ | – | – | – | – | – | – |
| A12G G59U | 1e-05 ± 1.9e-06 s⁻¹ | – | – | – | – | – | – |
| U45C C70G | 0.00245 ± 0.00063 s⁻¹ | – | 0.000381 ± 7.3e-05 s⁻¹ | 0.001 ± 0.00025 s⁻¹ | 3.27e-05 ± 1.6e-05 s⁻¹ | 8.88e-05 ± 3.7e-05 s⁻¹ | – |
| C11U C70U | 0.000987 ± 0.00026 s⁻¹ | 772 ± 320 µM | 0.000735 ± 9.1e-05 s⁻¹ | 0.00165 ± 0.00027 s⁻¹ | 0.000165 ± 2.1e-05 s⁻¹ | 0.000397 ± 3.7e-05 s⁻¹ | 5.88e-05 ± 6.9e-06 s⁻¹ |
| G66U C71G | 8.21e-05 ± 2.6e-06 s⁻¹ | 2320 ± 240 µM | 4.34e-05 ± 1.2e-05 s⁻¹ | 6.65e-05 ± 1.1e-05 s⁻¹ | – | – | – |
| G32U U47C | 0.000177 ± 4.1e-05 s⁻¹ | 7840 ± 3400 µM | 4.27e-05 ± 1.2e-05 s⁻¹ | 9.94e-05 ± 1.4e-05 s⁻¹ | – | – | – |
| C10U U54C | 2.54e-05 ± 7.7e-06 s⁻¹ | – | 3.09e-05 ± 1.2e-05 s⁻¹ | – | – | – | < 1e-05 s⁻¹ |
| U54G U56G | 0.016 ± 0.0043 s⁻¹ | 2790 ± 950 µM | 0.00688 ± 0.0019 s⁻¹ | 0.013 ± 0.0058 s⁻¹ | 0.000796 ± 0.00017 s⁻¹ | 0.00338 ± 0.00059 s⁻¹ | – |

| Variant | kcat [1] | KM [2] | self-cleavage kobs at 2500 uM GlcN6P [3] | self-cleavage kobs at 10000 uM GlcN6P [4] | self-cleavage kobs at 160 uM GlcN6P [5] | self-cleavage kobs at 640 uM GlcN6P [6] | self-cleavage kobs at 40 uM GlcN6P [7] |
| --- | --- | --- | --- | --- | --- | --- | --- |
| C58A C61A C70U | 1.3e-05 ± 1.9e-06 s⁻¹ | – | – | – | – | – | – |
| G44A U47A | 0.000358 ± 9.3e-05 s⁻¹ | 3500 ± 1700 µM | 0.000137 ± 2.1e-05 s⁻¹ | 0.00028 ± 4.7e-05 s⁻¹ | – | 7.28e-05 ± 1.8e-05 s⁻¹ | < 1e-05 s⁻¹ |
| C58G G63C | < 1e-05 s⁻¹ | – | < 1e-05 s⁻¹ | – | – | – | < 1e-05 s⁻¹ |
| G29A U56G | 0.00237 ± 0.00067 s⁻¹ | 1720 ± 760 µM | 0.00129 ± 0.00021 s⁻¹ | 0.00257 ± 0.00053 s⁻¹ | – | 0.000577 ± 9.1e-05 s⁻¹ | 6.78e-05 ± 1.3e-05 s⁻¹ |
| A36C A52U U56G U65A U69A | 2.16e-05 ± 2.7e-06 s⁻¹ | – | – | – | – | – | – |
| G9A G38U | < 1e-05 s⁻¹ | – | – | – | – | < 1e-05 s⁻¹ | – |
| G63C C70U | < 1e-05 s⁻¹ | – | < 1e-05 s⁻¹ | – | – | – | < 1e-05 s⁻¹ |
| A39C C58U | 1.02e-05 ± 1.6e-06 s⁻¹ | – | – | – | – | – | – |
| A14C A42U | 3.4e-05 ± 1.6e-05 s⁻¹ | – | – | 2.17e-05 ± 5.9e-06 s⁻¹ | – | – | – |
| A15U U54G | 0.00446 ± 0.00053 s⁻¹ | 1730 ± 330 µM | 0.00279 ± 0.00048 s⁻¹ | 0.00368 ± 0.0005 s⁻¹ | 0.000411 ± 6.8e-05 s⁻¹ | 0.00189 ± 0.00075 s⁻¹ | 8.2e-05 ± 2.2e-05 s⁻¹ |
| G44U U47G | 1.56e-05 ± 2.1e-07 s⁻¹ | 2560 ± 150 µM | – | – | – | – | – |
| G40C A53U | 0.00427 ± 0.00097 s⁻¹ | 2570 ± 870 µM | 0.00226 ± 0.00037 s⁻¹ | 0.0035 ± 0.00035 s⁻¹ | 0.000241 ± 5.8e-05 s⁻¹ | 0.000607 ± 0.00011 s⁻¹ | 8.31e-05 ± 9.2e-06 s⁻¹ |
| C16U G32C | 0.000168 ± 3e-05 s⁻¹ | 3960 ± 1900 µM | 7.33e-05 ± 1.4e-05 s⁻¹ | 0.000119 ± 1.2e-05 s⁻¹ | – | – | – |
| U31G U54C | 0.014 ± 0.0061 s⁻¹ | – | 0.00559 ± 0.00098 s⁻¹ | 0.0136 ± 0.0038 s⁻¹ | 0.000516 ± 0.00013 s⁻¹ | 0.00289 ± 0.00053 s⁻¹ | 0.000233 ± 4e-05 s⁻¹ |
| A39U C61U | < 1e-05 s⁻¹ | – | – | – | – | – | – |
| C50U U69C | 2.88e-05 ± 9.3e-06 s⁻¹ | – | 4.75e-05 ± 1.5e-05 s⁻¹ | – | 4.48e-05 ± 1.5e-05 s⁻¹ | – | – |
| G32U C70U | 0.00165 ± 0.00025 s⁻¹ | 5270 ± 1300 µM | 0.000464 ± 6.3e-05 s⁻¹ | 0.00111 ± 8.8e-05 s⁻¹ | 7.01e-05 ± 1.6e-05 s⁻¹ | 0.000182 ± 2.4e-05 s⁻¹ | – |
| U31C A52G C67U | 0.000208 ± 9.4e-05 s⁻¹ | – | 6.61e-05 ± 1.4e-05 s⁻¹ | 0.000147 ± 2.6e-05 s⁻¹ | – | 9.07e-05 ± 3.5e-05 s⁻¹ | – |
